# Values quoted from earlier work as cited in publication PMC7854602.
# Key:
# Cdc42 (activated) = Cdc42 (activated) (UniProt P60953)
# Cdc42 (inactive) = Cdc42 (inactive) (UniProt P60953)
# RhoA (activated) = RhoA (activated) (UniProt P61586)
# RhoA (inactive) = RhoA (inactive) (UniProt P61586)
Substance,Kd (Cdc42 (activated)) [µM],Kd (Cdc42 (inactive)) [µM],Kd (RhoA (activated)) [µM],Kd (RhoA (inactive)) [µM]
Pak3 CBD 60-113 (from UniProt O75914),1.8,149,,
Rhotekin RBD 8-81 (from UniProt Q8C6B2),,,3.9,47
